Series [1] in a line: Solubility pre-screen of peptides. Conditions: pre-screened for solubility in an aqueous, acidic milieu; YES/NO.
Series [2] is described as follows: Precipitation in aqueous solution of the binding assay. Format: physicochemical. An excerpt: (§1) This is a characteristic of promiscuous HLA-DRB1* binders.
Another series concerns the target DRB1*0701 (Homo sapiens, UniProt P01903+P01911, A100R/A102G/A103Q/D57E/D86V/E43K/F76Y/K127E/L162R/M171V/P40G/Q125H/Q99D/R33Q/R42Y/R54Q/S133A/S66F/T210M/V115G/Y107V/Y59L/Y89S). In words: Competitive MHC class II binding assay. Conditions: control peptide Influenza haemagglutinin 307-319.
A further series concerns the target DRB1*1101 (Homo sapiens, UniProt P01903+P01911, A100R/A169T/A87E/I96F/K41T/L162R/M171V/P40S/Q125H/Q178H/Q39Y/Q99D/R42S/S66Y/T262R/V115G/W38E). Kind of series: Competitive MHC class II binding assay. Conditions: control peptide Influenza haemagglutinin 307-319.
The next series addresses DRB1*1501 (Homo sapiens, UniProt P01903+P01911). In words: Competitive MHC class II binding assay. Conditions: control peptide Human myelin basic protein 85-99.
Another series has as its target DQA1*0102/DQB1*0602 (Homo sapiens, UniProt P01909+P01920, A157G/A45G/C70R/E118A/E183D/E77G/F83G/G63E/H151Q/H199R/H252R/H253Q/I129T/I235V/I88M/INS77G/K197Q/L117V/L119F/L178F/L71W/L74F/L85Q/L91A/L98M/N214S/P87R/Q116E/Q76K/R102G/R240Q/R75S/R78G/S102Y/S185I/S41F/S97I/T121G/T122I/T172A/T86R/V229M/V68A/V73E/Y34C/Y41F/Y58L). Kind of series: Competitive MHC class II binding assay. To be noted: control peptide Human Insulin B 1-15. As to the method: as §1
In addition, to identify lower affinity binders, the assay was also carried out under less stringent conditions. All the Der p binding peptides were seen to have a high ratio when tested against this allotype, showing they were low affinity binders compared to the control peptide. The DQA1*0102/DQB1*0602 binding assay uses a peptide from the B-chain of human insulin which is of lower affinity compared to those used in the DR assays. This dictates that the DQ assay is very sensitive and tends to produce very low ratio values for the strongest binders to this MHC Class II allotype. This sensitivity also accounts for the relatively higher number of DQ binding peptides within the panel screened.

Another series addresses DRB1*0301 (Homo sapiens, UniProt P01903+P01911, A100K/A102G/A103R/A169T/F55Y/I96L/K41T/L162R/M171V/P40S/Q125H/Q178H/Q39Y/R42S/S66N/T106N/T262R/W38E/Y61H). In words: Competitive MHC class II binding assay. To be noted: control peptide Myco. tuberculosis/leprae hsp 65 2-16.
From the text: as §1

The subject of series [3] is human MHC class II allotypes. In words: Competitive MHC class II binding assay, all allotypes. To be noted: competition assay, any allotype.
From the text: as §1
This is of significance as purities were seen to vary from 60-90%. This would have a considerable effect on the ability of a peptide to compete if it is relatively impure. […] Therefore, if purity is taken into consideration, they may in fact have an equivalent affinity to a peptide of a higher purity.

Another series deals with PBMC's. In words: Cytokine release assay (IL-13, IFN-gamma). In kind it is cell-based, human. Conditions: IL-13 or IFN-gamma response greater than 100 pg/ml. The protocol: Cytokine secretion profiles from PBMC's are analysed in response to the peptide stimulation using the peptides from Example 3.
Thus, an individual was considered to have responded to a peptide if cells from that individual yielded a response greater than 100 pg/ml for either […] or IFN-gamma.

[4] abbreviates: lowest concentration at which an insoluble white precipitate is seen in the aqueous solution of the binding assay.
Where [5] appears, read: lowest concentration at which an insoluble white precipitate is seen, value in brackets.

We go through eight compounds from patent US9744222B2, “Peptide for vaccine” (Circassia Limited, priority 2007, dated 2017).

Where a SMILES comes first, the peptide text is derived from it.

For the compound `CC[C@H](C)[C@H](NC(=O)[C@H](C)NC(=O)[C@@H](N)[C@@H](C)O)C(=O)N[C@@H](Cc1ccccc1)C(=O)N[C@@H](CCC(N)=O)C(=O)N[C@@H](CC(=O)O)C(=O)N[C@H](C(=O)N[C@H](C(=O)N[C@@H](CCCNC(=N)N)C(=O)N[C@@H](C)C(=O)N[C@@H](CCC(=O)O)C(=O)N[C@@H](CCSC)C(=O)N[C@H](C(=O)N[C@@H](CCCCN)C(=O)O)[C@@H](C)O)C(C)C)[C@@H](C)O` [HDM48] (H-TAIFQDTVRAEMTK-OH; N-terminus and C-terminus assumed), the Solubility test result in series [1] was “YES”.
Take `CSCC[C@H](NC(=O)[C@H](CCC(=O)O)NC(=O)[C@H](C)NC(=O)[C@H](CCCNC(=N)N)NC(=O)[C@@H](NC(=O)[C@@H](NC(=O)[C@@H](N)CC(=O)O)[C@@H](C)O)C(C)C)C(=O)N[C@H](C(=O)N[C@@H](CCCCN)C(=O)N[C@H](C(=O)N[C@@H](CC(C)C)C(=O)N[C@@H](C)C(=O)N1CCC[C@H]1C(=O)O)C(C)C)[C@@H](C)O` [HDM49] (H-DTVRAEMTKVLAP-OH; N-terminus and C-terminus assumed): the Solubility test result in [1] is recorded as “YES”.
Consider `CC(C)C[C@H](NC(=O)[C@H](CCC(=O)O)NC(=O)[C@H](CCCCN)NC(=O)[C@H](CCCCN)NC(=O)[C@H](Cc1ccccc1)NC(=O)[C@H](C)NC(=O)[C@@H]1CCCN1C(=O)[C@H](C)NC(=O)[C@H](CC(C)C)NC(=O)[C@@H](NC(=O)[C@@H](N)CCCCN)C(C)C)C(=O)N[C@@H](CCC(=O)O)C(=O)N[C@@H](CCCNC(=N)N)C(=O)O` [HDM50] (H-KVLAPAFKKELER-OH; N-terminus and C-terminus assumed), for which, in series [1], the Solubility test result is “YES”.
On to CIIHRGKPFQLEA [HDM20], for which, in series [2] (setting [4]), the Precipitation in assay result was “None”. Moreover, the “Relative binding, ratio of own IC50 to that of the control peptide, DRB1*0701” value with DRB1*0701 came out at 1.1. Further, the “Relative binding, ratio of own IC50 to that of the control peptide, DRB1*1101” value in the series with DRB1*1101 was determined as 28. In addition, in the series with DRB1*1501, the “Relative binding, ratio of own IC50 to that of the control peptide, DRB1*1501” value is 242.11. Besides, the “Relative binding, ratio of own IC50 to that of the control peptide, DQA1*0102 QB1*0602” value with DQA1*0102/DQB1*0602 worked out at 2.37. Besides, in series [1], the Solubility test entry is given as “YES”.
For DGLEVDVPGIDPNACH [HDM23A], the Precipitation in assay result in [2] (setting [4]) was “None”. The “Relative binding, ratio of own IC50 to that of the control peptide, DRB1*0301” value on DRB1*0301 was 347. In addition, the “Relative binding, ratio of own IC50 to that of the control peptide, DQA1*0102 QB1*0602” value at DQA1*0102/DQB1*0602 turned out to be 0.76. Also, the “MHC Class II binding (in words)” value in series [3] is on record as “low affinity binding”.
For HDDVVSMEYDLAYKL [HDM39A], the Precipitation in assay in series [2] (setting [4]) is 10000 µM; in series [2] (setting [5]) it was “(1.8 mg/ml)”.
Turning to SYYRYVAREQS [HDM205], in the series with PBMC's, the “Ranking of peptides by percentage of responders (in words)” value is given as “top five peptides”.
VSMEYDLAYKLGDLH [HDM40A]: the values for the Precipitation in assay in [2] (setting [4]) and in series [2] (setting [5]) were 10000 µM and “(1.8 mg/ml)”, respectively.
